# B1: ovalbumin: Albumin from chicken egg white, Catalog No. A7641, Grade VII, Sigma-Aldrich; non-trypsin inhibitor protein control (protein, UniProt P01012 2-386, looked up)
# Ovalbumin: GSIGAASMEFCFDVFKELKVHHANENIFYCPIAIMSALAMVYLGAKDSTRTQINKVVRFDKLPGFGDSIEAQCGTSVNVHSSLRDILNQITKPNDVYSFSLASRLYAEERYPILPEYLQCVKELYRGGLEPINFQTAADQARELINSWVESQTNGIIRNVLQPSSVDSQTAMVLVNAIVFKGLWEKAFKDEDTQAMPFRVTEQESKPVQMMYQIGLFRVASMASEKMKILELPFASGTMSMLVLLPDEVSGLEQLESIINFEKLTEWTSSNVMEERKIKVYLPRMKMEEKYNLTSVLMAMGITDVFSSSANLSGISSAESLKISQAVHAAHAEINEAGREVVGSAEAGVDAASVSEEFRADHPFLFCIKHIATNAVLFFGRCVSP
# B2: SBTI: trypsin inhibitor from Glycine max (soybean), Catalog No. 93620, ~10,000 units per mg, Sigma-Aldrich (protein, UniProt P01070 25-205, looked up)
# Trypsin inhibitor A: DFVLDNEGNPLENGGTYYILSDITAFGGIRAAPTGNERCPLTVVQSRNELDKGIGTIISSPYRIRFIAEGHPLSLKFDSFAVIMLCVGIPTEWSVVEDLPEGPAVKIGENKDAMDGWFRLERVSDDEFNNYKLVFCPQQAEDDKCGDIGISIDHDDGTRRLVVSKNKPLVVQFQKLDKESL
# What was measured:
# [1] = Oral administration of Compound 3 and Compound 101 to rats, hydromorphone in plasma; assay type: in vivo, rat; conditions: Compound 3 20 mg/kg, Compound 101 10 mg/kg
# Description: Saline solutions of Compound 3 (which can be prepared as described in Example 12) and Compound 101 (prepared as described in Example 14) were dosed as indicated in Table 8.
# [2] = Oral administration of Compound 4 and Compound 101 to rats, hydromorphone in plasma; assay type: in vivo, rat; conditions: Compound 4 20 mg/kg, Compound 101 10 mg/kg
# Description: Saline solutions of Compound 4 (which can be prepared as described in Example 13) and Compound 101 (prepared as described in Example 14) were dosed as indicated in Table 9.
# [3] = Oral administration of Compound 1 and SBTI in the presence of ovalbumin to rats, hydromorphone in plasma; assay type: in vivo, rat; conditions: Compound 1 20 mg/kg
# Description: In an effort to understand the role of SBTI, ovalbumin was used as a non-trypsin inhibitor protein control. Albumin from chicken egg white (ovalbumin) (Catalog No. A7641, Grade VII, lyophilized powder, Sigma-Aldrich) was dissolved in saline.
# At specified time points, blood samples were drawn, harvested for plasma via centrifugation at 5,400 rpm at 4° C. for 5 min, and 100 microliters (μl) plasma transferred from each sample into a fresh tube containing 1 μl of formic acid. The tubes were vortexed for 5-10 seconds, immediately placed in dry ice and then stored until analysis by HPLC/MS.
# [4] = Oral administration of Compound 4 and SBTI to rats, hydromorphone in plasma; assay type: in vivo, rat; conditions: Compound 4 20 mg/kg, SBTI 500 mg/kg
# Description: Dosing, sampling and analysis procedures were as described in Example 4, except that Compound 4 without inhibitor was administered to 7 rats.
# [5] = Oral administration of Compound 3 and SBTI to rats, hydromorphone in plasma; assay type: in vivo, rat; conditions: Compound 3 20 mg/kg, SBTI 500 mg/kg
# Description: Dosing, sampling and analysis procedures were as described in Example 4.
# trypsin = biological target: T1, trypsin (Bos taurus, UniProt P00760); assay: Modified trypsin assay (in vitro IC50); assay type: biochemical; conditions: trypsin inhibition
# T1 sequence (P00760 24-246): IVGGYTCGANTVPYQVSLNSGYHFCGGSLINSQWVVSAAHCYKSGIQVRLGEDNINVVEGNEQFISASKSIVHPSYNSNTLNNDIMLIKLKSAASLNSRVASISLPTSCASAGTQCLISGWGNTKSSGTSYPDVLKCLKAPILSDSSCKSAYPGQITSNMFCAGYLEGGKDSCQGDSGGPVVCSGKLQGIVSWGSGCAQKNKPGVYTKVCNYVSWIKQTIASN
# [6] = Oral administration of Compound 1 and SBTI to rats, hydromorphone in blood; assay type: in vivo, rat
# Description: At specified time points, blood samples were drawn, quenched into methanol, centrifuged at 14,000 rpm @ 4° C., and stored at −80° C. until analysis by high performance liquid chromatography/mass spectrometry (HPLC/MS).
# [7] = Oral administration of Compound 2 and SBTI to rats, hydromorphone in plasma; assay type: in vivo, rat; conditions: Compound 2 20 mg/kg, SBTI 500 mg/kg
# Description: When SBTI was dosed, it was administered 5 min prior to Compound 4. At specified time points, blood samples were drawn, processed and analyzed as described in Example 2.
molecule,measurement,setting,value
"CCOC(=O)N1CCN(C(=O)[C@H](CCCNC(=N)N)NS(=O)(=O)c2ccc3ccccc3c2)CC1 [Compound 101, (S)-ethyl 4-(5-guanidino-2-(naphthalene-2-sulfonamido)pentanoyl)piperazine-1-carboxylate]",Effect of Compound 101 on Compound 3's release of hydromorphone,[1],"attenuates Compound 3's ability to release hydromorphone, both with respect to suppressing Cmax and delaying Tmax"
same,Effect of Compound 101 on Compound 4's release of hydromorphone,[2],"attenuates Compound 4's ability to release hydromorphone, both with respect to suppressing Cmax and delaying Tmax"
B1,Effect of ovalbumin on Compound 1's release of hydromorphone,[3]; OVA 20-1000 mg/kg,does not significantly affect Compound 1's ability to release hydromorphone
B2,Effect of SBTI on Compound 4's release of hydromorphone,[4],"attenuates Compound 4's ability to release hydromorphone, at least with respect to delaying Tmax"
same,Effect of SBTI on Compound 3's release of hydromorphone,[5],"attenuates Compound 3's ability to release hydromorphone, both with respect to suppressing Cmax and delaying Tmax"
same,IC50,trypsin,270 nM
same,Effect of SBTI on Compound 1's release of hydromorphone,"[6]; Compound 1 20 mg/kg, SBTI 10-1000 mg/kg",attenuates Compound 1's ability to release hydromorphone in a dose-dependent manner
same,Attenuation of hydromorphone release from Compound 1,[6]; at higher SBTI concentrations,approximately 100%
same,Effect of SBTI on Compound 1's release of hydromorphone,[3]; SBTI 500 mg/kg in the presence of 500 mg/kg ovalbumin,suppresses Cmax and delays Tmax
same,Effect of SBTI on Compound 2's release of hydromorphone,[7],"attenuates Compound 2's ability to release hydromorphone, both with respect to suppressing Cmax and delaying Tmax"

# — patent publication US8802681B2, “Pharmaceutical compositions with attenuated release of phenolic opioids” (Signature Therapeutics, Inc., priority 2008, dated 2014)
